Reference: article PMC2596486 (PLoS ONE, 2008)

Key:
[1] = target: T1, rHA subtype H7 (A/Netherlands/219/03) (Influenza A virus …, UniProt Q6VMK1); test: ELISA; settings: both partners purified
T1 construct: source: bought: Protein Sciences Corp. (baculovirus vectors in insect cells)

[2] = target: T2, rHA subtype H1 (A/New Caledonia/20/99) (Influenza A virus A/New …, UniProt Q6WG00, strain); test: ELISA; settings: both partners purified
T2 construct: source: bought: Protein Sciences Corp. (baculovirus vectors in insect cells)

B1: CR6323 human IgG1 (antibody, V domains shown)
VH: EVQLVESGAEVKKPGSSVKVSCKASGGTFSSYGISWVRQAPGQGLEWMGDIIGMFGSTNYAQNFQGRLTITADESTSTAYMELSSLRSEDTAVYYCARSSGYYPAYLPHWGQGTLVTVSS
VL: not shown
binding result [1]: no binding (tested: 5 µg/ml IgG1)
binding result [2]: binds
